Test results published in IntAct's records for PubMed 29892012.

B1: Coiled-coil alpha-helical rod protein 1 (Homo sapiens), Q8TD31 (parent)
chain: MFPPSGSTGLIPPSHFQARPLSTLPRMAPTWLSDIPLVQPPGHQDVSERRLDTQRPQVTMWERDVSSDRQEPGRRGRSWGLEGSQALSQQAEVIVRQLQELRRLEEEVRLLRETSLQQKMRLEAQAMELEALARAEKAGRAEAEGLRAALAGAEVVRKNLEEGSQRELEEVQRLHQEQLSSLTQAHEEALSSLTSKAEGLEKSLSSLETRRAGEAKELAEAQREAELLRKQLSKTQEDLEAQVTLVENLRKYVGEQVPSEVHSQTWELERQKLLETMQHLQEDRDSLHATAELLQVRVQSLTHILALQEEELTRKVQPSDSLEPEFTRKCQSLLNRWREKVFALMVQLKAQELEHSDSVKQLKGQVASLQEKVTSQSQEQAILQRSLQDKAAEVEVERMGAKGLQLELSRAQEARRRWQQQTASAEEQLRLVVNAVSSSQIWLETTMAKVEGAAAQLPSLNNRLSYAVRKVHTIRGLIARKLALAQLRQESCPLPPPVTDVSLELQQLREERNRLDAELQLSARLIQQEVGRAREQGEAERQQLSKVAQQLEQELQQTQESLASLGLQLEVARQGQQESTEEAASLRQELTQQQELYGQALQEKVAEVETRLREQLSDTERRLNEARREHAKAVVSLRQIQRRAAQEKERSQELRRLQEEARKEEGQRLARRLQELERDKNLMLATLQQEGLLSRYKQQRLLTVLPSLLDKKKSVVSSPRPPECSASAPVAAAVPTRESIKGSLSVLLDDLQDLSEAISKEEAVCQGDNLDRCSSSNPQMSS
partner: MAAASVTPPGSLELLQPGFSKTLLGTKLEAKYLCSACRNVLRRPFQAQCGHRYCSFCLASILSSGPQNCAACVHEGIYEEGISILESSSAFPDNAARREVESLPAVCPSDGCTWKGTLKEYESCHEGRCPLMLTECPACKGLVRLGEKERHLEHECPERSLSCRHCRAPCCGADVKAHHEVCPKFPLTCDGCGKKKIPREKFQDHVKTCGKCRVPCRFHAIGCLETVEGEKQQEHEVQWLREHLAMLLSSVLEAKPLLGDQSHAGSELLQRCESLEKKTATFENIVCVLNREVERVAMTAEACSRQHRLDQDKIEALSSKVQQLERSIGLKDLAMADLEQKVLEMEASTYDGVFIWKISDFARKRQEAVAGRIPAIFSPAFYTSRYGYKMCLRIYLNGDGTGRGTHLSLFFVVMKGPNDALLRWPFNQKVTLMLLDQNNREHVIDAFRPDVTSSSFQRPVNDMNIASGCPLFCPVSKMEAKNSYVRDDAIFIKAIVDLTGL
B2: TBC1 domain family member 22B (Homo sapiens), Q9NU19 (parent)
chain: MAAENSKQFWKRSAKLPGSIQPVYGAQHPPLDPRLTKNFIKERSKVNTVPLKNKKASSFHEFARNTSDAWDIGDDEEEDFSSPSFQTLNSKVALATAAQVLENHSKLRVKPERSQSTTSDVPANYKVIKSSSDAQLSRNSSDTCLRNPLHKQQSLPLRPIIPLVARISDQNASGAPPMTVREKTRLEKFRQLLSSQNTDLDELRKCSWPGVPREVRPITWRLLSGYLPANTERRKLTLQRKREEYFGFIEQYYDSRNEEHHQDTYRQIHIDIPRTNPLIPLFQQPLVQEIFERILFIWAIRHPASGYVQGINDLVTPFFVVFLSEYVEEDVENFDVTNLSQDMLRSIEADSFWCMSKLLDGIQDNYTFAQPGIQKKVKALEELVSRIDEQVHNHFRRYEVEYLQFAFRWMNNLLMRELPLRCTIRLWDTYQSEPEGFSHFHLYVCAAFLIKWRKEILDEEDFQGLLMLLQNLPTIHWGNEEIGLLLAEAYRLKYMFADAPNHYRR
partner: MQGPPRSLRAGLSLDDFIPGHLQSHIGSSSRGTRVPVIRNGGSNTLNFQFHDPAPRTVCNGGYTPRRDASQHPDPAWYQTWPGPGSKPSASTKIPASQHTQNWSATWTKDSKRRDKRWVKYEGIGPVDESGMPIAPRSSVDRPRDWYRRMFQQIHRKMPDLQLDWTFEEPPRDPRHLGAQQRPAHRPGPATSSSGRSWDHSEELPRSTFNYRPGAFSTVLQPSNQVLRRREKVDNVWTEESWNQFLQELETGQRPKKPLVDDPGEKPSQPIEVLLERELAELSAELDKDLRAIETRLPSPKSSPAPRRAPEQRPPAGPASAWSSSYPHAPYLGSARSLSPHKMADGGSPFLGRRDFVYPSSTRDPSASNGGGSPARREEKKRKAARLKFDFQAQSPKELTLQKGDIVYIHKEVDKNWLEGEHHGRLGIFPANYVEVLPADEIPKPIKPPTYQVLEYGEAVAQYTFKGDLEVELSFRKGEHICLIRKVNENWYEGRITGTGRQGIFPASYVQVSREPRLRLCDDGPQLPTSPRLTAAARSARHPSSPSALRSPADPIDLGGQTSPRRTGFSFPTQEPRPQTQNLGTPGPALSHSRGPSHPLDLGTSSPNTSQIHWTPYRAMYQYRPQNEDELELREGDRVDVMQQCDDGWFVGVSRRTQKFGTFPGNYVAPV
B3: Islet cell autoantigen 1 (Homo sapiens), Q05084 (parent)
chain: MSGHKCSYPWDLQDRYAQDKSVVNKMQQKYWETKQAFIKATGKKEDEHVVASDADLDAKLELFHSIQRTCLDLSKAIVLYQKRICFLSQEENELGKFLRSQGFQDKTRAGKMMQATGKALCFSSQQRLALRNPLCRFHQEVETFRHRAISDTWLTVNRMEQCRTEYRGALLWMKDVSQELDPDLYKQMEKFRKVQTQVRLAKKNFDKLKMDVCQKVDLLGASRCNLLSHMLATYQTTLLHFWEKTSHTMAAIHESFKGYQPYEFTTLKSLQDPMKKLVEKEEKKKINQQESTDAAVQEPSQLISLEEENQRKESSSFKTEDGKSILSALDKGSTHTACSGPIDELLDMKSEEGACLGPVAGTPEPEGADKDDLLLLSEIFNASSLEEGEFSKEWAAVFGDGQVKEPVPTMALGEPDPKAQTGSGFLPSQLLDQNMKDLQASLQEPAKAASDLTAWFSLFADLDPLSNPDAVGKTDKEHELLNA
B4: Disks large-associated protein 2 (Homo sapiens), Q9P1A6 (parent)
chain: MGTAQVLPGILQKHCCILPDRNTESQCTLCGEPEEEEAGDLVQPGISFPGPAEEDLDPQYSWSPTQHFNEERYSPAPRSMKGLSGSRTQPPLCSGHTCGLAPPEDCEHLHHGPDARPPYLLSPADSCPGGRHRCSPRSSVHSECVMMPVVLGDHVSSSTFPRMHYSSHYDTRDDCAVAHAGAKINRIPANLLDQFEKQLPLHRDGFHTLQYQRTSAAAEQRSESPGRIRHLVHSVQKLFTKSHSLEGSSKSNANGTKADGRADDHHHAHHAKHSKRSKSKERKPEGKPRPGMSSWWSSDDNLDSDSTYRTPSVLNRHHLGPVAHCYPDALQSPFGDLSLKTSKSNNDVKCSACEGLALTPDAKYLKRSSWSTLTVSQAKEAYRKSSLNLDKPLLHQDAKPALRPCHYLQVPQDEWGGYPTGGKDEEIPCRRMRSGSYIKAMGDEESGESDSSPKTSPKSAILPEPLLKSIGQRPLGEHQTQTYLQAASDVPVGHSLDPAANYNSPKFRSRNQSYMRAVSTLSQASCVSQVSEAEINGQFESVCESVFSEVESQAMDALDLPGCFRTRSHSYLRAIQAGYSQDDECIPMMTPSDITSTIRSTAAVSYTNYKKTPPPVPPRTTSKPLISVTAQSSTESTQDAYQDSRAQRMSPWPQDSRGLYNSTDSLDSNKAMNLALETAAAQRHLPESQSSSVRTSDKAILVSKAEELLKSRCSSIGIQDSEFPEHQPYPRSDVETATDSDTESRGLREYHSVGVQVEDEKRHGRFKRSNSVTAAVQADLELEGFPGHITTEDKGLQFGSSFQRHSEPSTPTQYSAVRTVRTQGLFSYREDYRTQVDTSTLPPPDPWLEPAIDTVETGRMSPCRRDGSWFLKLLHAETKRMEGWCKEMEREAEENDLSEEILGKIRSAVGSAQLLMSQKFQQFYWLCQQNMDPSAMPRPTSQDLAGYWDMLQLSIEDVSMKFDELQRLRLNDWKMMESPERKEERKVPPPIPKKPPKGKFPITREKSLDLPDRQRQEARRRLMAAKRAASFRQNSASERADSIEIYIPEAQTRL
partner: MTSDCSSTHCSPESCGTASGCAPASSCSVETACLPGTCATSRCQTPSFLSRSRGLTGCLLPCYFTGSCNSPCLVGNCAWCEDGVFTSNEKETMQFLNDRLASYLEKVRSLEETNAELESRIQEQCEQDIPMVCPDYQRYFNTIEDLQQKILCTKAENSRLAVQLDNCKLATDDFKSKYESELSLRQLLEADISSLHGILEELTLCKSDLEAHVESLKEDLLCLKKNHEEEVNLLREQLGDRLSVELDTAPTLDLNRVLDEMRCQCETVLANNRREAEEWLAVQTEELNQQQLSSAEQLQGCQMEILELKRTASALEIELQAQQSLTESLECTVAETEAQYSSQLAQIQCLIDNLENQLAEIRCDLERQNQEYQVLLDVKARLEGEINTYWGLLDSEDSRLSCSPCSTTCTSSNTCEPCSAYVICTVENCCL

Variants of: B1
Details: with traf2_human TRAF2, Q12933

Variant	effect of a mutation on the interaction
W337R	disrupting interaction strength

Variants of: B2
Details: with vinex_human SORBS3, O60504

Variant	effect of a mutation on the interaction
A349T	disrupting interaction strength

Variants of: B3
Details: with rab2a_human RAB2A

Variant	effect of a mutation on the interaction
Q443R	disrupting interaction strength

Variants of: B3
Details: with rab2b_human RAB2B

Variant	effect of a mutation on the interaction
Q443R	disrupting interaction strength

Variants of: B4
Details: with KRT40, Q6A162

Variant	effect of a mutation on the interaction
R818T	with no effect
